In patent publication US20200024330A1:

What was measured:
Assay in all cases: cell-based or functional assay
[1] = molecular target: HIV-1 Env of isolate MGRM-D-028 (clade D) (HIV-1)
[2] = molecular target: HIV-1 92UG005 envelope protein (Env) on pseudovirus (HIV-1)
[3] = molecular target: HIV-1 97ZA012 envelope glycoprotein (Env) on pseudovirus (HIV-1)
[4] = molecular target: HIV-1 Env of isolate MGRM-AE-003 (HIV-1)
[5] = molecular target: HIV-1 Env of pseudovirus VLGCB3, clade B (HIV-1)
[6] = molecular target: HIV-1 MGRM-A-006 envelope glycoprotein (Env) (HIV-1)
[7] = molecular target: HIV-1 MGRM-F1-012 Env (pseudovirus) (HIV-1)
[8] = molecular target: HIV-1 Env of isolate MGRM-D-029 (clade D) (HIV-1)
[9] = molecular target: HIV-1 NL43 envelope protein (Env) on pseudotyped virus (HIV-1 NL43)
[10] = molecular target: HIV-1 Env of isolate MGRM-C-022 (pseudovirus) (HIV-1 isolate MGRM-C-022, subtype C)
[11] = molecular target: HIV-1 Env of isolate MG RM-D-001 (subtype D) (HIV-1)
[12] = molecular target: HIV-1 Env of isolate MGRM-F1-022 (HIV-1)
[13] = molecular target: HIV-1 Env of isolate MG RM-D-024 (subtype D) (HIV-1)
[14] = molecular target: HIV-1 MGRM-Chronic-B-003 Env (pseudovirus) (HIV-1)
[15] = molecular target: HIV-1 Env of isolate MG RM-AG-002 (HIV-1)
[16] = molecular target: HIV-1 VLGCB3 Env (pseudovirus) (HIV-1)
[17] = molecular target: HIV-1 MGRM-Chronic-B-020 Env (pseudovirus) (HIV-1)
[18] = molecular target: HIV-1 Env of isolate MG RM-AG-005 (HIV-1)
[19] = molecular target: HIV-1 MGRM-Chronic-B-010 Env (pseudovirus) (HIV-1)
[20] = molecular target: HIV-1 Env of isolate MG RM-AG-001 (HIV-1)
[21] = molecular target: HIV-1 JRCSF envelope glycoprotein (Env) on pseudovirus (HIV-1) (UniProt P20871)
[22] = molecular target: HIV-1 Env of isolate 92UG005 (subtype D) (HIV-1)
[23] = molecular target: HIV-1 JR-CSF Env R476A (HIV-1 (isolate JR-CSF)) (UniProt P20871)
[24] = molecular target: HIV-1 Env of isolate MG RM-AG-003 (HIV-1)
[25] = molecular target: HIV-1 JR-FL Env (pseudovirus) (HIV-1)
[26] = molecular target: HIV-1 Env of isolate MGRM-Chronic-B-001 (HIV-1)
[27] = molecular target: HIV-1 Env of isolate CMU02 (CRF01_AE), on pseudovirus (HIV-1)
[28] = molecular target: HIV-1 Env of isolate MGRM-C-028 (HIV-1)
[29] = molecular target: HIV-1 Env of isolate 93IN905 (HIV-1)

Chain of 1443_C16 (PG16) (TCN-116) (antibody) (VH): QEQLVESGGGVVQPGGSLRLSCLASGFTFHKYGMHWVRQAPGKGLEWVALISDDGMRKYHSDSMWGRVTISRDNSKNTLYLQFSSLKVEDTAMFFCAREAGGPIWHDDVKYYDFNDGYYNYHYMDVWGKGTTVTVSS
Chain of 1443_C16 (PG16) (TCN-116) (antibody) (VL): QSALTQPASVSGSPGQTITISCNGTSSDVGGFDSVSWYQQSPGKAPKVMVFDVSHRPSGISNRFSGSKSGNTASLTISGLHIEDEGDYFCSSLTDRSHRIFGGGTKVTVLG

| Substance | IC50 (µg/ml), pseudovirus neutralization [1] [µg/mL] | neutralization IC50 [2] [µg/mL] | IC50 (µg/ml), pseudovirus neutralization [3] [µg/mL] | IC50 (µg/ml), pseudovirus neutralization [4] [µg/mL] | IC50 (µg/ml), pseudovirus neutralization [5] [µg/mL] | IC50 (µg/ml), pseudovirus neutralization [6] [µg/mL] | IC50 (µg/ml), pseudovirus neutralization [7] [µg/mL] | IC50 (µg/ml), pseudovirus neutralization [8] [µg/mL] | IC50 (µg/mL) neutralization [10] [µg/mL] | IC50 (µg/mL), pseudovirus neutralization [11] [µg/mL] | IC50 [12] [µg/mL] | IC50 (µg/mL), pseudovirus neutralization [13] [µg/mL] | IC50, pseudovirus neutralization [14] [µg/mL] | neutralization IC50 [15] [µg/mL] | IC50, pseudovirus neutralization [16] [µg/mL] | IC50, pseudovirus neutralization [17] [µg/mL] | also measured |
| --- | --- | --- | --- | --- | --- | --- | --- | --- | --- | --- | --- | --- | --- | --- | --- | --- | --- |
| 2F5 (antibody) | > 50 | 11.8 | > 50 | 0.24 | > 50 | 15.7 | > 50 | > 50 | – | – | – | – | – | – | – | – | – |
| 2G12 (antibody) | > 50 | > 50 | > 50 | > 50 | 7.9 | 13.8 | 1.81 | > 50 | – | – | – | – | – | – | – | – | – |
| 4E10 (antibody) | 1.28 | 8.86 | 4.7 | 0.34 | 5.76 | 9.87 | 0.37 | 5.3 | – | – | – | – | – | – | – | – | – |
| 1443_C16 (PG16) (TCN-116) (antibody) | > 50 | > 50 | 2.55 | 0.03 | 0.4 | > 50 | 0.003 | > 50 | – | – | – | – | – | – | – | – | IC50, pseudovirus neutralization, 1 hour Virus/Ab Incubation [9]: < 0.0025 µg/mL; IC50, pseudovirus neutralization, 18 hour Virus/Ab Incubation [9]: 4.99 µg/mL |
| 1495_C14 (PGC14) (antibody) | > 50 | > 50 | > 50 | > 50 | 21 | > 50 | > 50 | > 50 | – | – | – | – | – | – | – | – | IC50, pseudovirus neutralization, 1 hour Virus/Ab Incubation [9]: 0.35 µg/mL; IC50, pseudovirus neutralization, 18 hour Virus/Ab Incubation [9]: 0.15 µg/mL |
| 4838_L06 (PGT-121) (antibody) | – | – | – | – | – | – | – | – | 0.015 | 0.615 | 0.104 | 0.038 | 0.011 | > 50 | 0.005 | 0.004 | – |
| 4858_P08 (PGT-123) (antibody) | – | – | – | – | – | – | – | – | 0.01 | 0.147 | 0.075 | 0.023 | 0.008 | > 50 | 0.004 | 0.005 | neutralization IC50 [18]: 0.149 µg/mL; IC50, pseudovirus neutralization [19]: 0.009 µg/mL; neutralization IC50 [20]: 2.51 µg/mL; IC50 (ug/ml), neutralizing activity [21]: 0.0423 µg/mL; IC50, pseudovirus neutralization [21]: 0.0423 µg/mL; IC80, pseudovirus neutralization [21]: 0.143 µg/mL; IC90 (pseudovirus neutralization) [21]: 0.289 µg/mL; IC95, pseudovirus neutralization [21]: 0.547 µg/mL; IC50 (µg/mL), pseudovirus neutralization [22]: 9.79 µg/mL; Fold IC50 increase relative to wild-type [23]: 2 fold; neutralization IC50 [24]: > 50 µg/mL; IC50, pseudovirus neutralization [25]: 0.014 µg/mL |
| 4877_D15 (PGT-122) (antibody) | – | – | – | – | – | – | – | – | 0.012 | 1.13 | 0.277 | 0.185 | 0.008 | > 50 | 0.008 | 0.005 | neutralization IC50 [18]: 33.9 µg/mL; IC50, pseudovirus neutralization [19]: 0.018 µg/mL; neutralization IC50 [20]: 14.5 µg/mL; IC50 (ug/ml), neutralizing activity [21]: 0.0727 µg/mL; IC50 (µg/mL), pseudovirus neutralization [22]: > 50 µg/mL; neutralization IC50 [24]: 43.7 µg/mL; IC50, pseudovirus neutralization [25]: 0.026 µg/mL |
| 5114_A19 (PGT-128) (antibody) | – | – | – | – | – | – | – | – | – | – | – | – | – | – | – | – | IC50 [26]: > 50 µg/mL; IC50, single-round pseudovirus neutralization [27]: > 50 µg/mL; Fold IC50 increase relative to wild-type [23]: 0.7 fold; IC50 [28]: 14.4 µg/mL; IC50 [29]: 0.009 µg/mL |
